Patent US11419921B2, “Methods of treating neurological disorders” (EnClear Therapies, Inc., priority 2018, dated 2022)

Tests used:
[1] = 1 TAME unit = 1 μmole TAME hydrolyzed/min at pH 8.2, 25° C.; cited from earlier work
(GR)10 [2] = assay: Cleavage of (GR)10 by enzymes in solution (PBS with CaCl2 and MgCl2), LC/MS of GR repeats; format: biochemical; details: in solution, activated with 2.5 mM DTT
Experimental: • (GR)10 dipeptide (also (GR)8, (GR)6, (GR)4, (GR)2) were synthetized by solid-phase synthesis by CanPeptide; All peptides are uncapped and supplied lyophilized with TFA as counter ions. Purity was always above 95%. • Buffer: PBS buffer containing CaCl2 and MgCl2. • Stock solution of enzyme (e.g., 10 mg/mL) (prepared per manufacturer instructions) in PBS. Activators added as necessary. • Working solution of protein of the desired concentration (e.g., 100 μg/mL) prepared immediately before use by diluting the stock solution (e.g., 5 μL of 10 mg/mL stock solution) in PBS buffer (e.g., in 495 μL of PBS). Exemplary Procedure Using 50 μM Concentrations of (GR)10
25 μL of a 100 μM solution of (GR)10 was added to each well of a 96-well plate. 25 μL of a solution of enzyme (two times the desired final enzyme concentration) was added, and the plates were incubated at room temperature. At the specified time points (5 minutes, 10 minutes, 30 minutes, 60 minutes, and 180 minutes) 2.5 μL of a 10% TFA solution were added to stop the reaction. For the time 0 min well, the TFA was added to the well before addition of the enzyme. After last time point, all samples were further diluted with 150 μL of dilution solution. The quenched reaction mixtures were analyzed by LC/MS to determine the concentration of GR repeats of different lengths.
The chromatography and mass spectrometry conditions utilized are shown in Table 2 and Table 3, respectively.

(GR)10 [3] = assay: (GR)10 digestion with immobilized proteases (NHS-activated agarose resin) in PBS; format: biochemical; details: immobilized
Experimental: (§1) Protease solutions were prepared at 2 mg/mL in sterile PBS with calcium, magnesium and 200 μL ([…]) were applied to 100 μL of pre-washed NHS-activated agarose resin in 0.8 mL centrifuge columns. Reactions were left 1.5 hour at room temperature with end-to-end mixing, after which resins were washed with 12 resin volumes of PBS. Unreacted sites were blocked with 500 μL of 1M ethanolamine for 15 minutes at room temperature and resins were further washed with 24 resin volumes. Resins were stored at 4 degrees in 500 μL of PBS containing 0.05% sodium azide as preservative.
110 μL of 50 μM (GR)10 dipeptide repeats prepared in PBS were added to each immobilized protease and incubated 5 minutes at room temperature with end-to-end mixing. Columns were spun down 1 minute at 1,000 Xg to recover digested GR dipeptides. Columns were washed with 110 μL of PBS to increase (GR)10 recovery. This procedure was repeated with 60 minutes digestion time. 100 μL of each samples were transferred to a new tube and 5 μL of 10% TFA followed by 300 μL of Dilution Solution were added. The reaction mixtures were analyzed by LC/MS to determine the concentration of GR repeats of different lengths.

(GR)10 [4] = assay: (GR)10 digestion with immobilized proteases in human cerebrospinal fluid (CSF); format: biochemical; details: immobilized enzyme
Experimental: as §1
200 μM of (GR)10 were diluted in human cerebrospinal fluid (CSF) and 400 μL were applied to each immobilized proteases. The reaction was incubated 5 minutes at room temperature with end-to-end mixing. Columns were spun down 1 minute at 1,000 Xg to recover digested GR dipeptides. Columns were washed with 12 resin volumes of PBS. The procedure was repeated with 60 minutes digestion time. 100 μL of each samples were transferred to a clean tube, flash-frozen and subsequently used for LC/MS quantification of GR repeats of different lengths. The remaining 300 μL of each samples were flash-frozen and used to assess neuron toxicity.
(GR)10 was digested with exemplary immobilized enzymes as described above in the subsection titled “(GR)10 digestion with immobilized proteases in CSF” of Example 3. Clostripain experiments were conducted with and without DTT activation (no DTT during digestion). The results obtained after 5 and 60 minutes of reaction time are presented in Table 25 and shown in FIG. 5 (commercial and in-house immobilized trypsin), FIG. 6 (immobilized elastase, FIG. 7A (immobilized clostripain without DTT) and FIG. 7 (immobilized clostripain with 2.5 mM DTT).

[5] = 2.5 mM DTT, resin wash from 5 min reaction
[6] = 2.5 mM DTT, resin wash from 60 min reaction
[7] = activated with 2.5 mM DTT, 5 min reaction
[8] = activated with 2.5 mM DTT, 60 min reaction

B1: TPCK-trypsin: TPCK-trypsin; ThermoFisher Cat #20233 (protein, UniProt P00760 24-246, looked up)
Serine protease 1: IVGGYTCGANTVPYQVSLNSGYHFCGGSLINSQWVVSAAHCYKSGIQVRLGEDNINVVEGNEQFISASKSIVHPSYNSNTLNNDIMLIKLKSAASLNSRVASISLPTSCASAGTQCLISGWGNTKSSGTSYPDVLKCLKAPILSDSSCKSAYPGQITSNMFCAGYLEGGKDSCQGDSGGPVVCSGKLQGIVSWGSGCAQKNKPGVYTKVCNYVSWIKQTIASN
modifications: TPCK-treated
Activity [1]: 308 TAME units/mg of protein

B2: Clostripain + DTT (protein)
chain: NKNQKVTIMYYCDADNNLEGSLLNDIEEMKTGYKDSPNLNLIALVDRSPRYSSDEKVLGEDFSDTRLYKIEHNKANRLDGKNEFPEISTTSKYEANMGDPEVLKKFIDYCKSNYEADKYVLIMANHGGGAREKSNPRLNRAICWDDSNLDKNGEADCLYMGEISDHLTEKQSVDLLAFDACLMGTAEVAYQYRPGNGGFSADTLVASSPVVWGPGFKYDKIFDRIKAGGGTNNEDDLTLGGKEQNFDPATITNEQLGALFVEEQRDSTHANGRYDQHLSFYDLKKAESVKRAIDNLAVNLSNENKKSEIEKLRGSGIHTDLMHYFDEYSEGEWVEYPYFDVYDLCEKINKSENFSSKTKDLASNAMNKLNEMIVYSFGDPSNNFKEGKNGLSIFLPNGDKKYSTYYTSTKIPHWTMQSWYNSIDTVKYGLNPYGKLSWCKDGQDPEINKVGNWFELLDSWFDKTNDVTGGVNHYQW
(GR)1 (normalized to GR concentration) ((GR)10 [2]; 5 min reaction): 86.8 µM
(GR)2 (normalized to GR concentration) ((GR)10 [2]; 5 min reaction): 113.6 µM
(GR)3 (normalized to GR concentration) ((GR)10 [2]; 5 min reaction): 40.5 µM
(GR)4 (normalized to GR concentration) ((GR)10 [2]; 5 min reaction): 27.2 µM
(GR)5 (normalized to GR concentration) ((GR)10 [2]; 5 min reaction): 12.1 µM
(GR)6 (normalized to GR concentration) ((GR)10 [2]; 5 min reaction): 7.3 µM
(GR)8 (normalized to GR concentration) ((GR)10 [2]; 5 min reaction): 0.0 µM
(GR)10 (normalized to GR concentration) ((GR)10 [2]; 5 min reaction): 5.7 µM
(GR)1 (normalized to GR concentration) ((GR)10 [2]; 60 min reaction): 387.0 µM
(GR)2 (normalized to GR concentration) ((GR)10 [2]; 60 min reaction): 0.0 µM
(GR)3 (normalized to GR concentration) ((GR)10 [2]; 60 min reaction): 0.0 µM
(GR)4 (normalized to GR concentration) ((GR)10 [2]; 60 min reaction): 0.0 µM
(GR)5 (normalized to GR concentration) ((GR)10 [2]; 60 min reaction): 0.0 µM
(GR)6 (normalized to GR concentration) ((GR)10 [2]; 60 min reaction): 0.0 µM
(GR)8 (normalized to GR concentration) ((GR)10 [2]; 60 min reaction): 0.0 µM
(GR)10 (normalized to GR concentration) ((GR)10 [2]; 60 min reaction): 0.0 µM
(GR)1 (normalized to GR concentration) ((GR)10 [3]; [5]): 99.1 µM
(GR)2 (normalized to GR concentration) ((GR)10 [3]; [5]): 0.0 µM
(GR)3 (normalized to GR concentration) ((GR)10 [3]; [5]): 0.0 µM
(GR)4 (normalized to GR concentration) ((GR)10 [3]; [5]): 0.0 µM
(GR)5 (normalized to GR concentration) ((GR)10 [3]; [5]): 0.0 µM
(GR)6 (normalized to GR concentration) ((GR)10 [3]; [5]): 0.0 µM
(GR)8 (normalized to GR concentration) ((GR)10 [3]; [5]): 0.0 µM
(GR)10 (normalized to GR concentration) ((GR)10 [3]; [5]): 0.0 µM
(GR)1 (normalized to GR concentration) ((GR)10 [3]; [6]): 125.6 µM
(GR)2 (normalized to GR concentration) ((GR)10 [3]; [6]): 0.0 µM
(GR)3 (normalized to GR concentration) ((GR)10 [3]; [6]): 0.0 µM
(GR)4 (normalized to GR concentration) ((GR)10 [3]; [6]): 0.0 µM
(GR)5 (normalized to GR concentration) ((GR)10 [3]; [6]): 0.0 µM
(GR)6 (normalized to GR concentration) ((GR)10 [3]; [6]): 0.0 µM
(GR)8 (normalized to GR concentration) ((GR)10 [3]; [6]): 0.0 µM
(GR)10 (normalized to GR concentration) ((GR)10 [3]; [6]): 0.0 µM
(GR)1 (normalized to GR concentration) ((GR)10 [3]; [7]): 299.3 µM
(GR)2 (normalized to GR concentration) ((GR)10 [3]; [7]): 0.0 µM
(GR)3 (normalized to GR concentration) ((GR)10 [3]; [7]): 0.0 µM
(GR)4 (normalized to GR concentration) ((GR)10 [3]; [7]): 0.0 µM
(GR)5 (normalized to GR concentration) ((GR)10 [3]; [7]): 0.0 µM
(GR)6 (normalized to GR concentration) ((GR)10 [3]; [7]): 0.0 µM
(GR)8 (normalized to GR concentration) ((GR)10 [3]; [7]): 0.0 µM
(GR)10 (normalized to GR concentration) ((GR)10 [3]; [7]): 0.0 µM
(GR)1 (normalized to GR concentration) ((GR)10 [3]; [8]): 335.6 µM
(GR)2 (normalized to GR concentration) ((GR)10 [3]; [8]): 0.0 µM
(GR)3 (normalized to GR concentration) ((GR)10 [3]; [8]): 0.0 µM
(GR)4 (normalized to GR concentration) ((GR)10 [3]; [8]): 0.0 µM
(GR)5 (normalized to GR concentration) ((GR)10 [3]; [8]): 0.0 µM
(GR)6 (normalized to GR concentration) ((GR)10 [3]; [8]): 0.0 µM
(GR)8 (normalized to GR concentration) ((GR)10 [3]; [8]): 0.0 µM
(GR)10 (normalized to GR concentration) ((GR)10 [3]; [8]): 0.0 µM
(GR)1 (normalized uM) ((GR)10 [4]; 5 min reaction): 79.8 µM
(GR)2 (normalized uM) ((GR)10 [4]; 5 min reaction): 83.2 µM
(GR)3 (normalized uM) ((GR)10 [4]; 5 min reaction): 70.5 µM
(GR)4 (normalized uM) ((GR)10 [4]; 5 min reaction): 90.8 µM
(GR)5 (normalized uM) ((GR)10 [4]; 5 min reaction): 90.5 µM
(GR)6 (normalized uM) ((GR)10 [4]; 5 min reaction): 86.4 µM
(GR)8 (normalized uM) ((GR)10 [4]; 5 min reaction): 64.8 µM
(GR)10 (normalized uM) ((GR)10 [4]; 5 min reaction): 58 µM
(GR)1 (normalized uM) ((GR)10 [4]; 60 min reaction): 458.3 µM
(GR)2 (normalized uM) ((GR)10 [4]; 60 min reaction): 409.2 µM
(GR)3 (normalized uM) ((GR)10 [4]; 60 min reaction): 85.5 µM
(GR)4 (normalized uM) ((GR)10 [4]; 60 min reaction): 21.2 µM
(GR)5 (normalized uM) ((GR)10 [4]; 60 min reaction): 3 µM
(GR)6 (normalized uM) ((GR)10 [4]; 60 min reaction): 0 µM
(GR)8 (normalized uM) ((GR)10 [4]; 60 min reaction): 0 µM
(GR)10 (normalized uM) ((GR)10 [4]; 60 min reaction): 0 µM
